In patent publication US5668000A, “Mitochondrial P450” (Sumitomo Chemical Company, Limited, priority 1990, dated 1997):

Experiments:
[1] = 27-hydroxylation activity of THC in yeast subcellular fractions with added ADX, ADR and NADPH; format: biochemical; conditions: expressed in yeast
Procedure: (§1) A mitochondrial fraction prepared from the strain AH22/pAC25 and a microsomal fraction prepared from the strain AH22/pAMS25 were used for the measurement of hydroxylation activities. Subcellular fractionation was prepared from a transformant yeast strain according to the following method. About 4×10^10 cells were collected from a culture containing about 2×10^7 cells/ml, suspended in Zymolyase solution [10 mM Tris-HCl (pH 7.5), 2.0M sorbitol, 0.1 mM dithiothreitol, 0.1 mM EDTA, 0.3 mg/ml Zymolyase 100T] and incubated at 30° C. for 1 hour to prepare spheroplasts. The spheroplasts were suspended in a sonication buffer (10 mM Tris-HCl (pH 7.5), 0.65M sorbitol, 0.1 mM dithiothreitol, 0.1 mM EDTA, 1 μg/ml leupeptin, 1 μg/ml pepstatin) and homogenized with a Teflon homogenizer to disrupt the cells.
(§2) Precipitate 1 was removed by centrifugation at 3000×g for 5 minutes to give supernatant 1'. Precipitate 1 was resuspended in a sonication buffer, homogenized again, centrifuged at 3000×g for 5 minutes to give precipitate 1 (undisrupted cells and nucleus fractions) and supernatant 1". […]
(§3) Reaction systems (2 ml) shown in the following but NADPH were mixed and preincubated at 37° C. for 5 minutes, and reaction was initiated by the addition of NADPH. […] The benzene layer obtained by centrifugation was dried completely and analyzed by HPLC under the condition listed below. […]

[2] = 25-hydroxylation activity of 1α-hydroxyvitamin D3 in yeast subcellular fractions with added ADX, ADR and NADPH; format: biochemical; conditions: expressed in yeast
Procedure: as §1, §2, §3

[3] = expressed in yeast

B1: P450c25: rat liver mitochondrial P450c25 expressed in yeast (protein, UniProt P17178 33-533, looked up)
Sterol 26-hydroxylase, …: AIPAALRDHESTEGPGTGQDRPRLRSLAELPGPGTLRFLFQLFLRGYVLHLHELQALNKAKYGPMWTTTFGTRTNVNLASAPLLEQVMRQEGKYPIRDSMEQWKEHRDHKGLSYGIFITQGQQWYHLRHSLNQRMLKPAEAALYTDALNEVISDFIARLDQVRTESASGDQVPDVAHLLYHLALEAICYILFEKRVGCLEPSIPEDTATFIRSVGLMFKNSVYVTFLPKWSRPLLPFWKRYMNNWDNIFSFGEKMIHQKVQEIEAQLQAAGPDGVQVSGYLHFLLTKELLSPQETVGTFPELILAGVDTTSNTLTWALYHLSKNPEIQEALHKEVTGVVPFGKVPQNKDFAHMPLLKAVIKETLRLYPVVPTNSRIITEKETEINGFLFPKNTQFVLCHYVVSRDPSVFPEPESFQPHRWLRKREDDNSGIQHPFGSVPFGYGVRSCLGRRIAELEMQLLLSRLIQKYEVVLSPGMGEVKSVSRIVLVPSKKVSLRFLQRQ
exhibited hydroxylation activities: hydroxylation activity to THC [1] | hydroxylation activity to 1α-hydroxyvitamin D3 [2] | hydroxylation activity to vitamin D3 [3]
